This data set deals with T1, NEUROG2 (cNEUROG2) (Gallus gallus (chick)?, UniProt Q9YH82 1-213).
T1 sequence: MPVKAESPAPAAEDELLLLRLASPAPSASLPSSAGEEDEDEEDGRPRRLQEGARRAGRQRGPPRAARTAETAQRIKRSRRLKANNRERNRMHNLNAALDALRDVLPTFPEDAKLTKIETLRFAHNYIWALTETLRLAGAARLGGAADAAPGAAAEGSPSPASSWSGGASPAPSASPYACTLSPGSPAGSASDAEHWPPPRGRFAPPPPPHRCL
Put plainly: EMSA.

B1: (Ebox)3 (dsDNA)
DNA 1: GATCCAGGCAGGTGGCAGGCAGGTGGCAGGCAGGTGGCAGATC
DNA 2: GATCTGCCACCTGCCTGCCACCTGCCTGCCACCTGCCTGGATC
B1: the binding result is on record as “no binding”.

Values taken from PMC2783839.
